Laboratory results from the nanobody polyreactivity screen of Harvey et al. (2022).

Experiment: yeast display, Sf9 membrane polyspecificity reagent, FACS + sequencing; frameworks hold sequencing errors
Outline: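 Sorting gates, low and high (top ~1%), were placed on anti-HA fluorescence to track expression and on streptavidin fluorescence to track reagent binding. A clone's polyreactivity label is taken from the gate it came out of. The reagent was 10% biotinylated, detergent-solubilized Sf9 membrane, applied for 1 hour at 4 °C to galactose-induced yeast display cells.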

| Sequence | polyreactivity (PSR sort gate) |
| --- | --- |
| QVQLVESGGGLVQAGGSLRLSCAASGITFVFYTMGWYRQAPGKERELVAAITSSGVRTSYADSVKGRFTISRDNAKNTVYLQMNSLKPEDTAVYYCAAKPTYVHKPGYNYWGQGTQVTVSS | high polyreactivity |
| QVQLVESGGGLVQAGGSLRLSCAASGITFVGNAMGWYRQAPGKERELVAAITSSGSTHYADSVKGRFTISRDNAKNTVYLQMNSLKPEDTAVYYCAAVTRFSGGLYYYWGQGTQVTVSS | high polyreactivity |
| QVQLVESGGGLVQAGGSLRLSCAASGITFVQYAMGWYRQAPGKERELVAAITSDGRTYYADSVKGRFTISRDNAKNTVYLQMNSLKREDTAVYYCAADVWRYTAYGGAYRRDYWGQGTQVTVSS | low polyreactivity |
| QVQLVESGGGLVQAGGSLRLSCAASGITFVRNAMGWYRQAPGKERELVAAISGRGGITYYADSVKGRFTISRDNAKNTVYFQMNSLKPEDTAVYYCAASSAGSSYNYWGQGSQVTVSS | high polyreactivity |
| QVQLVESGGGLVQAGGSLRLSCAASGITFVRYAMGWYRQAPGKERELVATITRRGGSTYYADSVKGRFTISRDNAKNTVYLQMNSLKPEDTAVYYCAADAYIWLYTDFPAYDYWGQGTHVTVSS | high polyreactivity |
| QVQLVESGGGLVQAGGSLRLSCAASGITFVRYTMGWYRQAPGKERQFVAGITRGGSTCYADSVKGRFTISRDNAKNTVYLQMNSLKPEDTAVYYCAARPRFLRASVEYDYWGQGTQVTVSS | high polyreactivity |
| QVQLVESGGGLVQAGGSLRLSCAASGITFVVYTMGWYRQAPGKERELVASISISGDSTNYAESVKGRFTISRDNAKNTVYLQMNILKPEDTAVYYCNAAFYHVQFPWIAYEYWGQGTQVTVSP | low polyreactivity |
| QVQLVESGGGLVQAGGSLRLSCAASGITFVYYAMGWYRQAPGKERELVAAISKNGGSTYYADSVKGRFTISRDNAMNTVYLQMNSLKPEDTAVYYCAAEEGYPWVRYNYWGQGPQVTVSS | high polyreactivity |
| QVQLVESGGGLVQAGGSLRLSCAASGITFWANAMGWYRQAPGKERELVASIRSSGGSTYYADSVKGRFTISRDNAKNTVYLQMNSLKPEDTAVYYCNARLGPLYVYRQYDSWGQGTQVTVSS | low polyreactivity |
| QVQLVESGGGLVQAGGSLRLSCAASGITFWDYAMGRYRQAPGKERELVAGISTRGGSTYYADSVKGRFTISRDNAKNTVYLQMNSLKPEDTAVYYCAADAQTSFGLGWGSDYDYWGQGTQVTVSS | low polyreactivity |
| QVQLVESGGGLVQAGGSLRLSCAASGITFWEYAMGWYRQAPGKERELVAAISRSGGSTYYADSVKGRFTISRDTAKNTVYLQMNSLKPEDTAVYYCAAYTRRPIYDYWGQGTQVTVSS | high polyreactivity |
| QVQLVESGGGLVQAGGSLRLSCAASGITFWEYAMGWYRQAPWKERELVAAISRSGGSTYYADSVKGRFTISRDNAKNTVYLQMNSLKPEDTAVYYCADETRRPIYDYWGQGTQVTVSS | high polyreactivity |
| QVQLVESGGGLVQAGGSLRLSCAASGITFWKYAMGWYRQAPGKERELVAAISGRGGSTYYADSVKGRFTISRDNAKNTVYLQMNSLKPEDTAVYSCDTRTYYRYPVFYWGQGTQVTVSS | high polyreactivity |
| QVQLVESGGGLVQAGGSLRLSCAASGITFWKYTMGWYIHAPGKERELVASITWSGGSTYYADSVKGRFTISRDNAKNTVYLQMNSLKPEDTAVYYCNAEYLRIDLDYWGQGTQVTVSS | low polyreactivity |
| QVQLVESGGGLVQAGGSLRLSCAASGITFWLYAMGWSRQAPGKERELVAGIDNGGSTTYADSVKGRFTISRDNAKNTVYLQMNSLNPEDTAVYYCAATFEWDPVYPYNGFIYDYWGQGTQVTVSS | high polyreactivity |
| QVQLVESGGGLVQAGGSLRLSCAASGITFWTYAMGGYRQAPGKERELVAAISKTVGSTFYADSVKGRFTISRDNAKNTVYLQMNSLKPEDTEVYYCNARRRRTVGWQYNYWGQGTQVTVSS | high polyreactivity |
| QVQLVESGGGLVQAGGSLRLSCAASGITFWVYVMGWYRQAPGKEREFVADISSGAGTTYYADSVKGRFTISRDNAKNTVYLQMNSLKPEDTAVYYCAARRWWPQWYDYWGQGTQVTVSS | high polyreactivity |
| QVQLVESGGGLVQAGGSLRLSCAASGITFWYYAMGWYRQAPGKERELVAAINWSGGSTYYADSVKGRFTISRDNAKNTVYLQMNSLKPEDTAVYYCAAEFGLWPYEYGYWGQGTQVTVSS | high polyreactivity |
| QVQLVESGGGLVQAGGSLRLSCAASGITFWYYAMGWYRQAPGKERELVAAITGGDSTNYADSVKGRFTISRDNAKNTVYLQMNSLKPEDTAVYYCNAEGSYEGYDDYWGHGTQVTVSS | high polyreactivity |
| QVQLVESGGGLVQAGGSLRLSCAASGITFWYYVMGWYRQAPGKERELFAAITLSGGSTYYADSVKGRFTISRDNAKNTVYLQMNSLKPEDTAVYYCNADGSAGIRGKYDYWGQGTQVTVSS | low polyreactivity |
| QVQLVESGGGLVQAGGSLRLSCAASGITFYEYAMGWYRQAPGKEREFVAAIDDGDSSTYYADSVKGRFTISRDNAKNTVYLQMNSLKPEDTAVYFCNADPYYDYSLNWGDYWGQGTQVTVSS | low polyreactivity |
| QVQLVESGGGLVQAGGSLRLSCAASGITFYEYAMGWYRQAPGKEREFVAAIDDGDSSTYYADSVKGRFTISRDNGKNTVYLQMNTLKPEDSAVFDCNADPYYDYSLNWGDYWGQGTQVTVSS | low polyreactivity |

| Sequence | polyreactivity (PSR sort gate) |
| --- | --- |
| QVQLVESGGGLVQAGGSLRLSCAASGITFYEYAMGWYRQAPGKERELVATITSGGNTNYADSVKGRFTISRDNAKNTVYLQMNSLKPEDTAVYYCNKEWDGDGYTDDWDYDYWGQGTQVTVSS | low polyreactivity |
| QVQLVESGGGLVQAGGSLRLSCAASGITFYFYAMGWYRQAPGKERELVARITSRGTRTYYADSVKGRFTISRDNAKNTVYLQMNSLKPEDTAVYYCAAGVSWDDYYWGQGTQVTVSS | high polyreactivity |
| QVQLVESGGGLVQAGGSLRLSCAASGITFYFYAMGWYRQAPGKERELVASITSSGSTDYADSVKGRFTISRDNAKNTVYLQMNSLKPEDTAVSYCAADVQKHFYSFGDERGFPFDYWGQGTQVTVSS | low polyreactivity |
| QVQLVESGGGLVQAGGSLRLSCAASGITFYFYVMGWYRQAPGKERELVADISTSDDSTYYADSVKGRFTISRDNAKNTVYLQMNSLKPEDTAVYYCATATRTYSAWYEYDYWGQGTQVTVSS | low polyreactivity |
| QVQLVESGGGLVQAGGSLRLSCAASGITFYGNAMGWYRQAPGKERELVAAISSSGGTTYYADSVKGRFTISRDNAKNTVYLQMNSLIPEDTAVYYCNALHPVVYYGTYFNLRRYDYWGQGTQVTVSS | low polyreactivity |
| QVQLVESGGGLVQAGGSLRLSCAASGITFYGYAMAWYRQAPGKERELVATITSGGSTYYADSVKGRFTISRDNAKNTVYLQMNSLKPEDTAVYYCAASRWYRRTRYGYWGQGTQVTVSS | high polyreactivity |
| QVQLVESGGGLVQAGGSLRLSCAASGITFYGYAMGWYRQAPGKERELVAAISRSGGSTYYADSVKGRFTISRDHAKNTVYVQMNSLKPEDTAVYYCNTDYGSSYNYWGQGTQVTVSS | high polyreactivity |
| QVQLVESGGGLVQAGGSLRLSCAASGITFYGYAMGWYRQAPGKERELVARITISGRTNYADYVKGRFTISRDNAKNTVYLQMNSLKPEDTAVYYCNAVYRGYYSGELDYWGQGTQVTVSS | high polyreactivity |
| QVQLVESGGGLVQAGGSLRLSCAASGITFYGYAMGWYRQAPGQERELVAAISSRGGSTYYADSVKGRFTISRDNAKNTVYLQMNSLKPEDTAVYNCAAVYYTGEYYYWGQGTQVTVSS | high polyreactivity |
| QVQLVESGGGLVQAGGSLRLSCAASGITFYGYDMGWYRQAPGKERELFAAISRSGGSTYYADSVKGRFTISRDNAKNTVYLQMNSLKPEDTAVYYCAADKQGYLGRTAFRYYYWGQGTQVTVSS | high polyreactivity |
| QVQLVESGGGLVQAGGSLRLSCAASGITFYGYDMGWYRQAPGKERELVAAITSDGITNYADSVKGRFTISRDNAKNTVYLQMNSLKPEDTAVYYCAADLSFYRRYEWYYYWGQGTQVTVSS | low polyreactivity |
| QVQLVESGGGLVQAGGSLRLSCAASGITFYINAMGWYRQAPGKERELVAVIDSRGSSTFYADSVKGRFTISRDNAKNTVYLVMKSLKPEDTAVYYCAAEPFWDYYATFYWKYGYWGQGTQVTVSS | low polyreactivity |
| QVQLVESGGGLVQAGGSLRLSCAASGITFYIYAMGWYRQAPGKERELVATISWSDGRTYYADSVKGRFTISRDNAKNTVYCQMNSLKPEDTAVYYCAADWWYYQFDYEYWGQGTQVTVSS | low polyreactivity |
| QVQLVESGGGLVQAGGSLRLSCAASGITFYIYAMGWYRQAPGKERELVATISWSDGRTYYADSVKGRFTISRDNAKNTVYLQINSLKPEDTAVYYCAADWWYYQFDYEYWGQGTQVTVSS | low polyreactivity |
| QVQLVESGGGLVQAGGSLRLSCAASGITFYKKVMGWYRPAPGKEKELVAAISSSGGSTYYADSVKGRFTISRDNAKNTVYLQRNSLKPEDTAVYYCAADDPLYTPYEFDYWGQGTQVTVSS | low polyreactivity |
| QVQLVESGGGLVQAGGSLRLSCAASGITFYLYAMGWYRQAPGKERELVAAISSSGGRTYYADSVKGRFTISRDNAKNTVYLQMNSLKPEDTAVYYCAARRYGVPPTYDYWGQGTQVTVSS | high polyreactivity |
| QVQLVESGGGLVQAGGSLRLSCAASGITFYLYAMGWYRQAPGKERELVAAISSSGGSTYYADSVKGRFTISRDNAKNTVYLQMNSLKPEDTAVYYCNARRRTVPYRYYYWGQGTQVTVSS | high polyreactivity |
| QVQLVESGGGLVQAGGSLRLSCAASGITFYPNDMGWYRQAPGKERELVAAITTNDGDTYYADSVKGRFTISRDNAKNTVYVQMNSLKPEDTAVYYCATGIDKGPVWVTYSTDYDYWGQGTQVTVSS | low polyreactivity |
| QVQLVESGGGLVQAGGSLRLSCAASGITFYPYAMGWYRQAPGKERELVAAITLSTGTTYYADSVKGRFTISRDNAKNTVYLQMNSLKPEDTAVYYCAVEGYWYAGWYAMDYWGQGTQVTVSS | low polyreactivity |
| QVQLVESGGGLVQAGGSLRLSCAASGITFYRKAMGRYRQAPGKERELVAAISRRGGITRYADSVKGRFTISRDNAKNTVYLQMNSLKPEDTAVYYCATVRYRWYSFQAERYYWGQGTQVTVSS | high polyreactivity |
| QVQLVESGGGLVQAGGSLRLSCAASGITFYRYALGWYRQAPGKEREFVAAISRSGVSTYYADSVKGRFTISRDNAKNTVYLQMNSLKPEDTAVYYCNKVYYPGFGYEGDYWGQGTQVTVSS | high polyreactivity |
